# T1: Nectin-4 (Homo sapiens, UniProt Q96NY8)
# T1 construct: endogenous in cells
# T1 sequence (Q96NY8 32-510): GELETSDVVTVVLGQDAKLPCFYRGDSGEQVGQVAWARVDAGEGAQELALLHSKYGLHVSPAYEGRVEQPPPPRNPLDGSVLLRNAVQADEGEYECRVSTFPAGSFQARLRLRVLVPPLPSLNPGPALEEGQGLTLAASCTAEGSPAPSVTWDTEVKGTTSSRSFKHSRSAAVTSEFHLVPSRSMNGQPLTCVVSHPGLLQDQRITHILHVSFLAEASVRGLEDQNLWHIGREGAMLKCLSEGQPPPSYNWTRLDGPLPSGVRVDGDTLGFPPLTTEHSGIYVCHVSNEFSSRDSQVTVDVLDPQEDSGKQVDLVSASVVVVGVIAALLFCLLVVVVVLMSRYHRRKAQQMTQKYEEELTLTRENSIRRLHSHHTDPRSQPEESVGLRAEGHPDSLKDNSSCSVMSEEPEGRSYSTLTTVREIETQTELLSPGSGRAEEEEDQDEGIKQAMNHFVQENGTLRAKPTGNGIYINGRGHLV
# B1: 15A7.5: anti-Nectin-4 monoclonal antibody described in WO2022/207822 and WO2022/207825 (antibody)
# heavy: EVQLVESGGGLVQPGGSLRLSCAASGFTFSNYGMAWVRQAPGKGLEWVSFISNLAYGINYADTVTGRFTISRDNAKNSLYLQMNSLRAEDTAVYYCARGARATGWFAYWGQGTLVTVSSASTKGPSVFPLAPSSKSTSGGTAALGCLVKDYFPEPVTVSWNSGALTSGVHTFPAVLQSSGLYSLSSVVTVPSSSLGTQTYICNVNHKPSNTKVDKRVEPKSCDKTHTCPPCPAPEFEGGPSVFLFPPKPKDTLMISRTPEVTCVVVDVSHEDPEVKFNWYVDGVEVHNAKTKPREEQYNSTYRVVSVLTVLHQDWLNGKEYKCKVSNKALPASIEKTISKAKGQPREPQVYTLPPSREEMTKNQVSLTCLVKGFYPSDIAVEWESNGQPENNYKTTPPVLDSDGSFFLYSKLTVDKSRWQQGNVFSCSVMHEALHNHYTQKSLSLSPGK
# light: DIQMTQSPSSLSASVGDRVTITCKASQNVDTHVAWYQQKPGKAPKALIYSASYRYSGVPSRFSGSGSGTDFTLTISSLQPEDFATYYCQQYNSYPLTFGGGTKVEIKRTVAAPSVFIFPPSDEQLKSGTASVVCLLNNFYPREAKVQWKVDNALQSGNSQESVTEQDSKDSTYSLSSTLTLSKADYEKHKVYACEVTHQGLSSPVTKSFNRGEC
# B2: ETx-22: ADC of H1L2_15A7.5 anti-Nectin-4 mAb (HC SEQ ID NO:5, LC SEQ ID NO:6) conjugated via cysteines to exatecan Linker-Payload of Formula (L-P′) (conjugate)
# heavy: B1 heavy
# light: B1 light
# modifications: exatecan linker-payload conjugated via cysteines
# Columns and labels:
# Nectin-4 = biological target: T1, Nectin-4; conditions: described in WO2022/207822 and WO2022/207825; cited from earlier work
# [1] = Hydrophobic interaction chromatography (HIC) versus naked 15A7.5 mAb; format: physicochemical; conditions: compared with naked 15A7.5 mAb (FIG. 2)
# Description: As determined by SEC-HPLC, less than 5% material was aggregated. […] (See FIG. 2 and corresponding Brief Description). […] (See FIG. 3 and corresponding Brief Description). In vitro cytotoxic activity was assessed for the HCT-116-2G10 clone expressing human nectin-4. (See FIG. 4 and corresponding Brief Description).
molecule,measurement,setting,value
B1,"selectivity of affinity, tumor cells versus keratinocytes",Nectin-4,selective affinity for tumor cells versus keratinocytes
B2,hydrophilicity by HIC profile,[1],high homogenous hydrophilicity

# Reference: US12419964B2, “Antibody drug conjugate (ADC) targeting Nectin 4 and comprising an exatecan payload” (ELI LILLY AND COMPANY, priority 2023, dated 2025)
